Measurements reported in publication doi:10.64898/2025.12.09.693204 (bioRxiv, 2025).

Molecular target: Homo sapiens importin-β (Homo sapiens, UniProt Q14974 1-876)
Assay: partitioning into phase-separated condensates

Chain of Homo sapiens importin-β (Q14974 whole entry): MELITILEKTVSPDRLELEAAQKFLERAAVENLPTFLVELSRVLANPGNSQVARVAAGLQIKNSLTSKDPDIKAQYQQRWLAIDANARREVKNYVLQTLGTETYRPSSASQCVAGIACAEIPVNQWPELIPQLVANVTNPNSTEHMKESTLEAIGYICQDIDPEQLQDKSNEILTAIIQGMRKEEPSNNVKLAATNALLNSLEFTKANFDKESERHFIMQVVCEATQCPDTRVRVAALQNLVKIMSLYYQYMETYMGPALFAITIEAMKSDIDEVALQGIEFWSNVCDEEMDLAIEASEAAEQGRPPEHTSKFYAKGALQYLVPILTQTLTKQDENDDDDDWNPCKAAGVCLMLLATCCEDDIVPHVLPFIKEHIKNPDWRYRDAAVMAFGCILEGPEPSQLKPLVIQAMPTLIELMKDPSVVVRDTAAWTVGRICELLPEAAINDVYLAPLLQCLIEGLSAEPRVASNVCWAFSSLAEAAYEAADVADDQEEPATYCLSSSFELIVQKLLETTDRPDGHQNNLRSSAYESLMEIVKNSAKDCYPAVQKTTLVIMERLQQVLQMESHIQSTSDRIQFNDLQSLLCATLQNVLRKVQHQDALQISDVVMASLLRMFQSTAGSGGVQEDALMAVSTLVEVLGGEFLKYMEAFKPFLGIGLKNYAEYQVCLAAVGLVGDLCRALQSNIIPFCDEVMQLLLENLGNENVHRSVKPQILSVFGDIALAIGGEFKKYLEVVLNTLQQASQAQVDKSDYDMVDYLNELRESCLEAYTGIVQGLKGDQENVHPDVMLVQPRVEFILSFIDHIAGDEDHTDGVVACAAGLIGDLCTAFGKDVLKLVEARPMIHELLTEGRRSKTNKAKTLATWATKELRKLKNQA

- binding result: binds
B1: Homo sapiens NUP98 FG domain (residues 1-505, GLEBS domain residues 157-213 excluded) (domain or fragment, UniProt P52948 1-505, looked up)
chain: MFNKSFGTPFGGGTGGFGTTSTFGQNTGFGTTSGGAFGTSAFGSSNNTGGLFGNSQTKPGGLFGTSSFSQPATSTSTGFGFGTSTGTANTLFGTASTGTSLFSSQNNAFAQNKPTGFGNFGTSTSSGGLFGTTNTTSNPFGSTSGSLFGPSSFTAAGPQNQVGAGTTTGLFGSSPATSSATGLFSSSTTNSGFAYGQNKTAFGTSTTGFGTNPGGLFGQQNQQTTSLFSKPFGQATTTQNTGFSFGNTSTIGQPSTNTMGLFGVTQASQPGGLFGTATNTSTGTAFGTGTGLFGQTNTGFGAVGSTLFGNNKLTTFGSSTTSAPSFGTTSGGLFGNKPTLTLGTNTNTSNFGFGTNTSGNSIFGSKPAPGTLGTGLGAGFGTALGAGQASLFGNNQPKIGGPLGTGAFGAPGFNTTTATLGFGAPQAPVALTDPNASAAQQAVLQQHI
